Reference: FireProtDB (doi:10.1006/jmbi.1995.0616)

B1: Subtilisin-chymotrypsin inhibitor-2A, P01053 (parent)
chain: MSSVEKKPEGVNTGAGDRHNLKTEWPELVGKSVEEAKKVILQDKPEAQIIVLPVGTIVTMEYRIDRVRLFVDKLDNIAQVPRVG

Variants of: B1
Details: Hordeum vulgare; pH 6.25; 25 °C; GdnHCl; Fluorescence; MES 50 mM; reversible: yes; structure 2CI2; whole UniProt chain shown

Variant | ddG of mutation (higher = less stable) [kcal/mol] | denaturant m value [kcal/mol/M] | denaturant midpoint (higher = more stable) [M] | unfolding free energy [kcal/mol]
MSSVEKKPEGVNTGAGDRHNLKTEWPELVGKSVEEAAKVILQDKPEAQIIVLPVGTIVTMEYRIDRVRLFVDKLDNIAQVPRVG [K37A] | 1.13 | 1.73 | 3.75 | 6.47
MSSVEKKPEGVNTGAGDRHNLKTEWPELVGKSVEEAGKVILQDKPEAQIIVLPVGTIVTMEYRIDRVRLFVDKLDNIAQVPRVG [K37G] | 2.01 | 1.99 | 2.8 | 5.59
MSSVEKKPEGVNTGAGDRHNLATEWPALVGKSVEEAKKVILQDKPEAQIIVLPVGTIVTMEYRIDRVRLFVDKLDNIAQVPRVG [K22A E27A] | 1.17 | 1.87 | 3.43 | 6.43
MSSVEKKPEGVNTGAGDRHNLKTEWAELVGKSVEEGKKVILQDKPEAQIIVLPVGTIVTMEYRIDRVRLFVDKLDNIAQVPRVG [P26A A36G] | 1.3 | 2.39 | 2.64 | 6.3
MSSVEKKPEGVNTGAGDRHNLKTEWPELVGKSVEEAKKVILQDKPEAQIIVVPVGTIVTMEYRIDRVRLAVDKLDNIAQVPRVG [L52V F70A] | 3.26 | 1.94 | 2.24 | 4.34
MSSVEKKPEGVNTGAGDRHNLKTEWPELVGKSVEEAKKVILQDKPEAQIIVVPVGTIVTMEYRIDRVRLLVDKLDNIAQVPRVG [L52V F70L] | 1.08 | 2.37 | 2.75 | 6.52
MSSVEKKPEGVNTGAGDRHNLKTEWPELVGKSVEEAKKVILADKPEAQIIVLPVGTIVTMEYRIDRVRLFVDKLDNIAQVPRVG [Q42A] | 0.54 | 1.77 | 3.99 | 7.06
MSSVEKKPEGVNTGAGDRHNLKTEWPELVGKSVEEAKKVILGDKPEAQIIVLPVGTIVTMEYRIDRVRLFVDKLDNIAQVPRVG [Q42G] | 0.92 | 1.81 | 3.69 | 6.68
MSSVEKKPEGVNTGAGDRHNLKTEWPELVGKSVEEAKKVILQDAPEAQIIVLPVGTIVTMEYRIDRVRLFVDKLDNIAQVPRVG [K44A] | 1.85 | 1.57 | 3.67 | 5.75
MSSVEKKPEGVNTGAGDRHNLKTEWPELVGKAVEEAKKVILQDKPEAQIIVLPVGTIVTMEYRIDRVRLFVDKLDNIAQVPRVG [S32A] | 1.02 | 1.86 | 3.54 | 6.58
MSSVEKKPEGVNTGAGDRHNLKTEWPELVGKGVEEAKKVILQDKPEAQIIVLPVGTIVTMEYRIDRVRLFVDKLDNIAQVPRVG [S32G] | 0.06 | 2.1 | 3.59 | 7.54
MSSVEKKPEGVNTGAGDRHNLKTEWPELVGKSVDEAKKVILQDKPEAQIIVLPVGTIVTMEYRIDRVRLFVDKLDNIAQVPRVG [E34D] | 0.77 | 1.83 | 3.73 | 6.83
MSSVEKKPEGVNTGAGDRHNLKTEWPELVGKSVQEAKKVILQDKPEAQIIVLPVGTIVTMEYRIDRVRLFVDKLDNIAQVPRVG [E34Q] | 0.4 | 1.87 | 3.85 | 7.2
MSSVEKKPEGVNTGAGDRHNLKTEWPELVGKSVNEAKKVILQDKPEAQIIVLPVGTIVTMEYRIDRVRLFVDKLDNIAQVPRVG [E34N] | 0.28 | 2.01 | 3.64 | 7.32
MSSVEKKPEGVNTGAGDRHNLKTEWPELVGKSVEEAKKVILQDKPEAQIIVVPVGTIATMEYRIDRVRLLVDKLDNIAQVPRVG [L52V V58A F70L] | 2.84 | 1.83 | 2.6 | 4.76
MSSVEKKPEGVNTGAGDRHNLKTEWPELVGKSVAAAKKVILQDKPEAQIIVLPVGTIVTMEYRIDRVRLFVDKLDNIAQVPRVG [E34A E35A] | -0.02 | 2.11 | 3.61 | 7.62
MSSVEKKPEGVNTGAGDRHNLKTEWPELVGKAVAAAKKVILQDKPEAQIIVLPVGTIVTMEYRIDRVRLFVDKLDNIAQVPRVG [S32A E34A E35A] | 0.75 | 2.18 | 3.14 | 6.85
MSSVEKKPEGVNTGAGDRHNLKTEWPELVGKSVEEAKKVILQDKPEAQIIVLPVGTIATMEYRIDRVRLLVDKLDNIAQVPRVG [V58A F70L] | 2.2 | 2.02 | 2.67 | 5.4
MSSVEKKPEGVNTGAGDRHNLKTEWPELVGKSVEEAKKVVLQDKPEAQIIVLPVGTIVTMEYRIDRVRLFVDKLDNIAQVPRVG [I40V] | 0.97 | 1.99 | 3.33 | 6.63
MSSVEKKPEGVNTGAGDRHNLKTEWPELVGKSVEEAKKVILQDKPEAQIIVAPVGTIATMEYRIDRVRLLVDKLDNIAQVPRVG [L52A V58A F70L] | 3.34 | 1.93 | 2.21 | 4.26
MSSVEKKPEGVNTGAGDRHNLKTEWPELVGKSVEEAKKVILQDKAEAQIIVLPVGTIVTMEYRIDRVRLFVDKLDNIAQVPRVG [P45A] | 1.22 | 2.07 | 3.09 | 6.38
MSSVEKKPEGVNTGAGDRHNLKTEWPELVGKSVEEAKKVILQDKPEAQIIVLAVGTIVTMEYRIDRVRLFVDKLDNIAQVPRVG [P53A] | 0.58 | 1.79 | 3.91 | 7.02
MSSVEKKPEGVNTGAGDRHNLKTEWPELVGKSVEEAKKAILQDKPEAQIIVLPVGTIVTMEYRIDRVRLFVDKLDNIAQVPRVG [V39A] | 0.06 | 2.01 | 3.75 | 7.54
MSSVEKKPEGVNTGAGDRHNLKTEWPELVGKSVEDAKKVILQDKPEAQIIVLPVGTIVTMEYRIDRVRLFVDKLDNIAQVPRVG [E35D] | -0.36 | 2.2 | 3.62 | 7.96
MSSVEKKPEGVNTGAGDRHNLKTEWPELVGKSVEQAKKVILQDKPEAQIIVLPVGTIVTMEYRIDRVRLFVDKLDNIAQVPRVG [E35Q] | 0.68 | 1.84 | 3.76 | 6.92
MSSVEKKPEGVNTGAGDRHNLKTEWPELVGKSVENAKKVILQDKPEAQIIVLPVGTIVTMEYRIDRVRLFVDKLDNIAQVPRVG [E35N] | 0.08 | 2.18 | 3.45 | 7.52
